Here are results for one molecule from patent publication US20190170753A1 (ICAHN SCHOOL OF MEDICINE AT MOUNT SINAI, published 2019).

Assay [1] deals with T1, C113WT biotin labeled HCV core peptide (hepatitis C virus, also: biotin labeled, position not given here).
T1 peptide: RGSRPSWGPTD
The experiment in a line: capture EIA; Ab 0.977 ng/mL; bt-peptide 500 ng/mL.

Assay [2] addresses T2, Mut1T110N biotin labeled HCV core peptide (hepatitis C virus, biotin labeled (position not given)).
T2 peptide: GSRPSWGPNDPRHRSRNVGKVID
The experiment in a line: capture EIA; Ab 0.977 ng/mL; bt-peptide 500 ng/mL.

The target in assay [3] is T3, C113T109N biotin labeled HCV core peptide (hepatitis C virus, also: biotin labeled, position not given here).
T3 construct: also called C113T110N
T3 peptide: RGSRPSWGPND
Put plainly: capture EIA; Ab 0.977 ng/mL; bt-peptide 500 ng/mL.

The target of assay [4] is T4, WT1STHV biotin labeled HCV core peptide (hepatitis C virus, biotin labeled (position not given)).
T4 peptide: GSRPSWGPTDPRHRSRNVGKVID
The experiment in a line: capture EIA; Ab 0.977 ng/mL; bt-peptide 500 ng/mL.

In assay [5] the target is T5, Mut6T110S biotin labeled HCV core peptide (hepatitis C virus, biotin labeled (position not given)). Put plainly: capture EIA; Ab 0.977 ng/mL; bt-peptide 500 ng/mL.
Assay [6] has as its target T6, 92-133 biotin labeled HCV core peptide (hepatitis C virus, UniProt Q9WMX2 92-133, chain 1: biotin label (bt-pep). Its position and any spacer are not visible in the passages shown.).
T6 construct: Only the label 92-133 is printed
T6 peptide: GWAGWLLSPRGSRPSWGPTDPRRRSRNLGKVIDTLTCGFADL
The experiment in a line: capture EIA; Ab 0.977 ng/mL; bt-peptide 500 ng/mL.
Experimental: (§1) Assay wells were coated with sheep anti-mouse IgG Fc specific antibody and incubated overnight. The coating solution was then removed; the wells blocked using BSA/tween in PBS and then washed with dH2O. […] Next, biotin labeled peptides (diluted to 500 ng/mL in block) were added, the plates incubated for 10 minutes while shaking at 700 rpm and then washed. Peroxidase conjugated streptavidin (diluted to 200 ng/mL in block) was then added to all assay wells, incubated for 20 minutes while shaking at 700 rpm and then washed. Finally, color was developed using OPD and signal quenched using 1N H₂SO₄. Signal was read at 492 nm.

In assay [7] the target is T1, C113WT biotin labeled HCV core peptide. Put plainly: capture EIA; Ab 3.906 ng/mL; bt-peptide 500 ng/mL.
Experimental: as §1
In assay [8] the target is T2, Mut1T110N biotin labeled HCV core …. Put plainly: capture EIA; Ab 3.906 ng/mL; bt-peptide 500 ng/mL.
Experimental: as §1
Assay [9] deals with T3, C113T109N biotin labeled HCV core …. Put plainly: capture EIA; Ab 3.906 ng/mL; bt-peptide 500 ng/mL.
Experimental: as §1
Assay [10] addresses T4, WT1STHV biotin labeled HCV core peptide. Put plainly: capture EIA; Ab 3.906 ng/mL; bt-peptide 500 ng/mL.
Experimental: as §1
In assay [11] the target is T5, Mut6T110S biotin labeled HCV core …. The experiment in a line: capture EIA; Ab 3.906 ng/mL; bt-peptide 500 ng/mL.
Experimental: as §1
In assay [12] the target is T6, 92-133 biotin labeled HCV core peptide. Put plainly: capture EIA; Ab 3.906 ng/mL; bt-peptide 500 ng/mL.
Experimental: as §1
In assay [13] the target is T2, Mut1T110N biotin labeled HCV core …. Put plainly: capture EIA; Ab 1000 ng/mL; bt-peptide 500 ng/mL.
Experimental: as §1
Assay [14] deals with T3, C113T109N biotin labeled HCV core …. The experiment in a line: capture EIA; Ab 1000 ng/mL; bt-peptide 500 ng/mL.
Experimental: as §1
Assay [15] deals with T4, WT1STHV biotin labeled HCV core peptide. The experiment in a line: capture EIA; Ab 1000 ng/mL; bt-peptide 500 ng/mL.
Experimental: as §1
The target of assay [16] is T5, Mut6T110S biotin labeled HCV core …. Put plainly: capture EIA; Ab 1000 ng/mL; bt-peptide 500 ng/mL.
Experimental: as §1
In assay [17] the target is T6, 92-133 biotin labeled HCV core peptide. Put plainly: capture EIA; Ab 1000 ng/mL; bt-peptide 500 ng/mL.
Experimental: as §1
Assay [18] deals with T7, HCV core peptide 49 (hepatitis C virus, HELM PEPTIDE1{[O=C1N[C@H]2[C@H](CS[C@H]2CCCCC(=O)[*:2])N1].S.G.S.G.L.L.S.P.R.G.S.R.P.S.W.G.P.T.D.[am]}$$$$V2.0; SMILES …).
T7 peptide: SGSGLLSPRGSRPSWGPTD
Put plainly: peptide EIA.

The target of assay [19] is T8, HCV core peptide 48 (hepatitis C virus, HELM PEPTIDE1{[O=C1N[C@H]2[C@H](CS[C@H]2CCCCC(=O)[*:2])N1].S.G.S.G.G.W.L.L.S.P.R.G.S.R.P.S.W.G.P.[am]}$$$$V2.0; SMILES …).
T8 construct: also called aa 95-109
T8 peptide: SGSGGWLLSPRGSRPSWGP
The experiment in a line: peptide EIA.

Assay [20] has as its target T9, HCV core peptide 55 (hepatitis C virus, HELM PEPTIDE1{[O=C1N[C@H]2[C@H](CS[C@H]2CCCCC(=O)[*:2])N1].S.G.S.G.P.T.D.P.R.R.R.S.R.N.L.G.K.V.I.[am]}$$$$V2.0; SMILES …).
T9 construct: also called aa 109-123
T9 peptide: SGSGPTDPRRRSRNLGKVI
Put plainly: peptide EIA, 2 ug/mL IgG (summary table).
Experimental: (§2) The coated plates were kept dry in a sealed foil pouch and stored at <10 degrees C. until ready for use. A peptide coated plate for each test antibody was blocked using 3% BSA in PBS with 0.5% Tween 20. The blocked plates were washed with distilled water and a 2 ug/mL solution of purified IgG from each test sample diluted in BSA block solution was added to each peptide coated well of the blocked plate and allowed to incubate at room temperature for at least one hour. Following incubation the plates were washed with distilled water. A 200 ng/mL solution of peroxidase labeled F(ab′)2 fragment goat anti-mouse IgG Fc fragment specific (Jackson Immunoresearch) in BSA block solution was added to all wells and incubated at room temperature for 30 minutes. The plates were washed with distilled water and o-phenylenediamine substrate was used as the chromagen to generate signal. Plates were read at 492 nm and the results were analyzed.

Assay [21] deals with T10, HCV core peptide 53 (hepatitis C virus, HELM PEPTIDE1{[O=C1N[C@H]2[C@H](CS[C@H]2CCCCC(=O)[*:2])N1].S.G.S.G.P.S.W.G.P.T.D.P.R.R.R.S.R.N.L.[am]}$$$$V2.0; SMILES …).
T10 peptide: SGSGPSWGPTDPRRRSRNL
The experiment in a line: peptide EIA, 2 ug/mL IgG (summary table).
Experimental: as §2

Assay [22] deals with T11, HCV core peptide 51 (hepatitis C virus, HELM PEPTIDE1{[O=C1N[C@H]2[C@H](CS[C@H]2CCCCC(=O)[*:2])N1].S.G.S.G.R.G.S.R.P.S.W.G.P.T.D.P.R.R.R.[am]}$$$$V2.0; SMILES …).
T11 peptide: SGSGRGSRPSWGPTDPRRR
Put plainly: peptide EIA, 2 ug/mL IgG (summary table).
Experimental: as §2

Where no end group is shown, it is not given here.

B1: Neo4 mouse monoclonal antibody (antibody, V domains shown)
VH: QIQLKESGPAVIKPSQSLSLTCIVSGFSITSSVYCWQWIRQPPGKGLEWMGRICYDGSVDYSPSITSRGTISRDTSLNKVFFQLSSVTNEDTAMYYCSRENHIDYYDTTYPSFDVWGAGTTVTVSS
VL: DIVLTQSPASLIVSLGQRATISCRASKSVNEYGYTYMHWYQQKPGLPPKLLIYLASNLDSGVPARFSGSGSGTDFTLNIHPVEEEDAATYYCQHSRELPYTFGGGTKLEIKR
notes: Mouse hybridoma antibody, isotype IgG1, purified with Protein G; also called HCV Neo4
Turning to B1, the “signal at 492 nm” value is 0.0584 A492 in assay [1]; 0.0619 A492 in assay [2]; 0.0784 A492 in assay [3]; 0.22 A492 in assay [4]; 0.0644 A492 in assay [5]; 0.0978 A492 in [6]. The “signal at 492 nm” value stood at 0.0694 A492 in assay [7]; 0.0719 A492 in assay [8]; 0.0717 A492 in [9]; 0.669 A492 in [10]; 0.0847 A492 in assay [11]; 0.217 A492 in assay [12]. Also, the “signal at 492 nm” value is 0.0678 A492 in [13]; 0.0591 A492 in assay [14]; 2 A492 in assay [15]; 1.17 A492 in [16]; 1.41 A492 in assay [17]. The binding result in assay [18] and in [19] was “no binding” throughout. Moreover, the “OD (A492 nm)” value in assay [20] turned out to be 0.97 OD; in assay [21], 0.96 OD; in assay [22], 0.96 OD.
